Values belong to the binder of their own block, whether it stands above or below them.
Columns and labels:
[1] = target: T1, mouse glycophorin-A (GYPA) on the mouse erythrocyte surface (mouse, UniProt P14220 1-168); assay: photo-crosslinking of biotinylated peptide on whole mouse erythrocytes, streptavidin bead purification, streptavidin and anti-GYPA Western blots
[2] = target: T1, mouse glycophorin-A (GYPA) on the mouse …; assay: photo-crosslinking of biotinylated peptide on whole mouse erythrocytes, streptavidin Western blot

binding result [1]: binds
B1: ERY1 peptide (H2N-WMVLPWLPGTLDGGSGCRG-CONH2) functionalized with biotin and a photoactivatable crosslinker (peptide)
peptide: H-WMVLPWLPGTLDGGSGCRG-NH2
modifications: also: conjugated to Mts-Atf-biotin, site not given here
notes: Synthetic peptide: the ERY1 12-mer followed by a GGSG linker, Cys and Arg-Gly; also called biotinylated soluble peptide; peptide-biotin complex

binding result [2]: no binding
B2: mismatch peptide (H2N-PLLTVGMDLWPWGGSGCRG-CONH2) conjugated to Mts-Atf-biotin (peptide)
peptide: H-PLLTVGMDLWPWGGSGCRG-NH2
modifications: not fully specified; also: conjugated to Mts-Atf-biotin, site not given here
notes: Control peptide with the same residues as ERY1 in scrambled order
